In the DeepSol protein solubility set:

Assay: soluble on expression in E. coli; label from the status in PepcDB or PDB records

Soluble on expression in E. coli, not soluble:
MGSDKIHHHHHHMAQQDRLQQMREWIKTTPEISLDQLMGEYRISRDTARRDLIQLEREGKIIRVKNGLIRVGTNTTIQYDRRTEQPEKNRIAKHAVRYVQPDQTIILDAASTVARMTVHLPAQPIQIITNALAVVEQLEARPEIDLYVTGGKWDRHARSLVGIKTADDILNYQVDRVFLGACGLTEQGVFAENLEEAIVKKAMIRSSAEVIVLADHTKFEKRFLHKVCDLDQIDILITDERPTEQWQKWLQEADILLETAEEE
MGSDKIHHHHHHMAQQKPHDVNEPSRRRLLKGIGALGGALAITGGCPVAHAAKAESSPGTLTPDARQEKQPFYGRHQAGILTPQQASMMLVAFDVLAADKADLERLFRLLTQRIAFLTQGGPAPDTPNPRLPPMDSGILGPWIAPDNLTITVSVGHSLFDERFGLADKAPKKLQPMTRFPNDSLDAALCHGDLLLQICANTQDTVIHALRDVIKHTPDLLSVRWKREGFISDSAARSKGKETPINLLGFKDGTANPASHDSALMDKVVWVTADQDEPAWTVGGSYQAARIIQFHVEFWDRTPLKEQQTIFGRDKHTGAPLGMKNEHDTPDYSKDPNGEVIALDSHIRLANPRTPETQSSLMMRRGYSYSLGVTNAGQLDMGLLFVCYQHDLEKGFLTVQKRLNGEALEEYVKPIGGGYFFVLPGVVDEKHYLGESLLQA
MGSDKIHHHHHHMARILIIRFSALGDVAMTIPVVHSLAVQYPQLEITVLSRAVWQPLFQGLPANVSFIGADLTGKHKGLWGLNTLYSELKAKHFDYVADFHHVLRTKYLCLRFRLANIPVASIYKGRVGKEKLVRRRHKVLENQKSSFRRYADVLEKLGFPVLLNFSSIYGDEKGNFAEIEPVTGAKDNLKWIGIAPFAKHMGKIYPIELQEQVVAHFAADPKVKVFLFGGGKSEQEVFDGWVAKYPTVVSMIGKLNMRTELNLMSHLDVMLSMDSANMHLASLVNIPVISVWGATHPYAGFMGWKQLPVNTVQFDLSCRPCSVYGQKPCWRGDYACLREIKPEQVIAKIEGIIN
MGSDKIHHHHHHMASHNTTHQMKTLCSSCSLRELCLPVGLLPNELSQLDAVIRQSRRLKKGEYLFCVGEAFTSLFAIRSGFFKTTVASQDGRDQVTGFFMSGELIGMDGICSHVHSCDAVALEDSEVCELPFTHIEELGQNIPSLRTHFFRMMSREIVRDQGVMLLLGNMRAEERIAAFLLNLSQRLYSRGFAANDFILRMSREEIGSYLGLKLETVSRTLSKFHQEGLISVEHKHIKILNLQVLKKMVSGCSHAI
MGSDKIHHHHHHMASLDVFHQDAFTTIQLTTAVDKYPFQPTGLGDLNIFEPDPIRTTALAVEQRQGKLVVVPFSERGQEGTQRTTEQREARYFKVPRIMHADTLYANEIQDIRAFGTESELMQVQAEVARRLNGPTGLTSNIEYTWEYHRLAAVQGMLLDADGTVKYNWFDEFGITPPSLVPFNLSAQTPNSLRPIVNGIRRTMARKAQGAFLPTTKIFALCGDLFYDELTNHTDVIRTYLNWSAASELRDDSQGAAFEAFPFAGVTWSNYRGSDDNTTLKIPDDEVHFFPVGAPGVFRVAYAPGESFEWVNTPGKPIYVIPIYDRDRNSFWKMEAYSYPLHICTRPEVLQKGHAGA
MGSDKIHHHHHHMASPTVRRRQLSAILREMRKASGLSLDAVAARLEWSRAKVGHIETGQRKKPSVLEVKALMAEYGVTPEDPRYETVLMLTRQAQARGWWRRYDDLFPGSYIELEAEASEIRTYEAFVVPGLLQTPGYTRLLQQARLDRDPDDVERAVESRRKRQEIFDRTSPPAVYAIIEEHALERLRGTPDVLAEQVAHLLHMAGRNSVTLQVLRTRVGVHAGAMGPFVILDFPEPASPVVYLETYTDGLFLERREEIDQYRSLWDRIRDAALPPDRTVEFLRSLLTL
MGSDKIHHHHHHMATLKRIWLALNPQEAAAWQALLTTAGLAADRQVDYTVGIFEGETLLATGSLSGNIIKEVAVTPATQHENLLAQVIQALLDRLDDDGVTHSFVYTKPTTVKFFLSLGFKQLAATDAVVLLERGYPNLTDYVASLEKQRRPEKPAAAIVMNANPITRGHAYLIETAAKVNPVVYVFVLSAERSLFTADERLALVRKVAARWPNVVVLPTNDYMVSNTTFPSYFLKERADADVAAVQARLDAALFKQAIAPVLGITRRYVGEEPLSPVTAIYNRELAATFGSAIELIVVPRLMIDGDVVSATRVRAAMAQQDWKTVQQLVYPEVYQEIKERSTHGN
MGSDKIHHHHHHMATTESFAQTLAAKQPRLLAAFKHIIAQNHLAHAYLFAGMEGAGQPELAHWIAQRLFCLHINDGEPDGTCEECVRIANGSHPDIVTVAPEGQRIHVDQVRYLKAEFSKSAVEGNRKLFIINDAEKMTASAANSLLKFIEEPSGNVTALLLTTNKQLMLPTIISRTQVIEFPPLNAQALQQTFEQAGIAPNQAQMLRGLTNSVTQAQALLADDWLPQAAQALWRWFDQAVKGDPRSFVAVQVNLVGLAKDADHQLVMLDLIAALFQDLLQLHFEVATTALTFGQYQKELAGLTAEVSDEQLIAATELALTAKRQLASNISFQNVLEGLTLKLWPIFQTNA
MGSDKIHHHHHHMAVECIKDKVTRYPERASYSDEDLVAMLDRNFTCTVSFIDGGIPYAIPMMLASEGKTIYLHGSMKSRIYGILKTGQLIAISLLEINGIVLAKEIKNNSINYVSALIFGRPYEIDDTEKKIEVFRLLTEKLVKGRRDNSIKPSYEDLNGVFVFAVKPETFSMKARTGPPHDTSTDDIWSGVLPIQHTISEAGENAPEYVKSLYGKRIFI
MGSDKIHHHHHHMAVFSQYFGKLNQYKNALTQKVDNYWTLSCFQDVAAINPWLVPGQGRKTGSSIVLKNDVLVELGSPEAGSCSMTLYTNSPHQITDGWITLMGSDITEYTPKKLPFGQVIMVGGEHLTEEDYYYLLQNLNVSEMIEGYMIRSTAESIWCRISKDAAKNGFNFHVLGSVLNWHIKQILPKVKAVEIVFVTTTKEDIEELNQISKEVGEIGRRIKERIWREKGVDIYKCVPGGHCGACEDKTVCDTIRKIGAGR
MGSDKIHHHHHHMAVKVLSIDLGATNGKIYEVELKDRLTVKEIKRFRTEGTFLPGKDREHFVWNLPGFYEEIKGVLEASDAQSVGVDTWGVDFALLDENGRLVSLPYHYRDVRTKGVMKKAFEVVPKDEIFQRTGIQFMEINTLYQLYSMVLSNDPFLKTTKHLLMIPDVFNFWLSGEMVSEYTIASTSQCYSVPDGEWAYDLLEKLSIPTEIFPKVVPPGTILGKCRVKKGINVIATACHDTASAVVAVPLEGEGIYISSGTWFLVGTELERPLLSKEALERNFTNEGGYGKIRFLKNATGMWLLEECNRIWKKDYSEIIESVRNVPGFQAFLDPDREEFLHPGNMPERIRNYLERTGQKILERIGEISRLIFESLAFNCRWIVEQIKELTGKRYGKIHVVGGAVRNDLLMSFIASATGKTVVAGPVDATPIGNALVQLITLGAIANINEARKIVKESFELKTFEPKNPELWSEKYEEWRRYKGMRV
MGSDKIHHHHHHMAVPLPVSARKDTVVPVLMYHDVSNHFHDPFTISPALFAAHMEWLHAAGYRAVTVGEALAGRGATAGKMVVITFDDGYASFLDYVHPLLLQYGFSAAISVIGSHVGTWLERDGRRPMLSWDEYRYLAARRVEVGCHAYHLHAIERLRHASADELAEDLELFQKTMAREMGRRATLLAWPYGIYTSERVQIARQAGFVHILTSNEGYVDDGTDPGAIPRLNIDNRLDLVSFSNYLRGE
MGSDKIHHHHHHMAYVPNPVNIGVVYTENAAVLVDSGLDESVPRKISRLLQKPPLYLINTHSHADHCGGNAFLKKRFSTRVFAPKMEKEIIENTVFEPFYLYGAYPPNELRNKFLMAEPSAVDEVIEEGTITIESVDLEIVPLSGHSTNQIGVAVDGVLFCADAVFSEETLRKHRIFVIYNVEKFLETLDFLEKTSYSYYVPSHGEVTRDIGELVEKNRKAVENIINAVLEITVNPLSTDELMKQLFDRFEITLENLTQYILYRSTVHAYLSFLLDRKEIEREFRNNVLVWRRC
